US20240101708A1 (Genentech, published 2024)
Values joined by “and” are separate entries in the source; they are usually repeats but may differ in a detail not shown here. Equal values may be shown once.

T1: recombinant human RNF43 extracellular domain (human, UniProt Q68DV7 24-197)
T1 construct: extracellular domain; also called huRNF43; human RNF43 ECD
T1 sequence (looked up): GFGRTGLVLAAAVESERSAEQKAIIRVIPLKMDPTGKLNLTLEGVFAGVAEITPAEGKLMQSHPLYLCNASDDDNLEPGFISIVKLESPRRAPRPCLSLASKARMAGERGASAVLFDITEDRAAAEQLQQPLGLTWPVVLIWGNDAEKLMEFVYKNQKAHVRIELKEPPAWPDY


What follows are binders tested against T1, recombinant human RNF43 extracellular … (assay: SPR Biacore 8K; antibody captured on Protein A; RNF43 ECD analyte; 25 C).
Experimental: Antibodies were screened for binding to recombinant human RNF43 and ZNRF3 ECDs using a Biacore® 8 k instrument (GE Life Sciences). Briefly, antibodies diluted to 1 μg/ml in 1×HBSP buffer (Cytiva, BR100368) were captured on a Sensor Chip Protein A (GE Life Sciences) using a flow rate of 10 μl/minute and a contact time of 60 seconds. Binding of recombinant human RNF43 and ZNRF3 extracellular domain to the captured antibodies was analyzed at 25° C. using a single cycle kinetics method with a flow rate of 30 μl/minute, a contact time of 180 seconds and a dissociation time of 600 seconds. The concentration of recombinant human RNF43 and ZNRF3 extracellular domain in the single cycle kinetics were 0, 0.8, 4, 20, and 100 nM. Between cycles, the chip was regenerated using 10 mM Glycine HCl pH 1.5 injected for 30 seconds at 30 μl/minute. Data were evaluated using Biacore 8K Evaluation software (GE Life Sciences). Kinetic constants were obtained using a 1:1 binding model with the parameter RI set to zero. Cell surface ligase antibodies with sub-nanomolar affinities may provide advantages in certain instances, for example, in the degradation efficiency which is correlated with the durability of the ternary complex as shown in FIG. 5D.

| Binder | Kd |
| --- | --- |
| RNF43-181 (antibody, V domains shown, Rat clone; VH/VL only) VH: QIQLQQSGAELVKPGSSVKISCKSSAYRFTSNFIHWIRQQPGNGLEWIGWIYPGDGDAENNQKFNGKVILTADKSSSTAYMQLSSLTSEDSAVYFCARGVMTSLWYFDFWGPGTMVTVSS VL: DVQMTQSPYNLAASPGESVSINCKASKSISKYLAWYQQKPGKTNKLLIYDGSTLQSGIPSRFSGSGSGTDFTLTIRSLEPEDFGLYYCQQHHEQPPTFGSGTKLEIK | 0.0859 nM |
| RNF43-136 (antibody, V domains shown, Rat clone; VH/VL only) VH: QVQLQQSGAELVKPGSSVKISCKASGYTFTSKFMHWIKQQPGSGLEWIGWIYPEHGNTKYNQKFDGKATLTADKSSSTAYMQLSSLTSGDSAVYFCARQSSQGAYAMDAWGQGTSVTVSS VL: DIQMTQSPVSLSASLGQTVSIECLTSEGIPIDLAWYQQKSGKSPQLLIYAASRSQDGVPSRFSGSGSGTRYSLKISGMQPEDEADYFCQQTYKYPFTFGSGTRLEIK | 1.91 nM |
| RNF43-86 (antibody, V domains shown, Rat clone; VH/VL only) VH: EVQLVESGGGLVQPGRSLKLSCAASGFTFTNYYMAWVRQAPTKGLEWVASISPSGDTTYYPDSVKGRFTVSRDNAKSTQYLQMDNLRSEDTATYYCARDAYTYYGYKGWYFDFWGPGTMVTVSS VL: QFVLTQPNSVSTNLGSAVKLSCKRSTDDIGSNYVNWYQQHEGRSPTTMIYRDDKRPDGVPDRFSGSIDRSSNSALLTINNVQTEDEADYFCQSYSSGIYIFGGGTKLTVL | 17.3 nM |
| RNF43-53 (antibody, V domains shown, Rat clone; VH/VL only) VH: EVQLVESGGGLVQPGRSLKLSCGASGFSFSTYYMVWVRQAPTKGLEWVASISPNGGNTYYPDSVKGRFTISRDNAKSTQYLQMDSLRSEDTATYYCATDGSYYYDGYRWLAYWGQGTLVTVSS VL: QFVLTQPNSVSTNLGSTVKLSCKRSTGNIGSNYVSWYQQHEGRSPTTLIYRDDKRPDGVPDRFSGSIDRSSNSALLTINNVQTEDEAGYFCQSFSSGLFIFGGGTKLTVL | 3.3 nM |
| RNF43-38 (antibody, V domains shown, Rat clone; VH/VL only) VH: EVQLVESGGGLVQPGTSLKISCVASGFTFSDYWMSWVRQTPGKTMEWIGDIKSDGSYTNYAPSLKNRFTISRDNAKSTLYLQMNNVRSEDTATYYCTRDAYRYNYVHYGLDAWGQGASVTVSS VL: QFVLTQPNSVSANLGSTVKLSCNRSTGNIGSNYVSWYQQHEGRSPTTMLYRDGKRPDGIPDRFSGSIDGSSNSALLTINNVQTEDEADYFCQSYSSGIKYIFGGGTKLTVL | 4.93 nM and 8.66 nM |
| RNF43-56 (antibody, V domains shown, Rat clone; VH/VL only) VH: EVQLVESGGGLVQPGTSLKISCVASGFTFSDYWMSWVRQTPGRTMEWIGDIKYDGSYTNYAPSLKNRFTISRDNAKSILYLQMNNVRSEDTATYYCTRDAYGYNYVHYGLDAWGQGASVTVSS VL: QFVLTQPNSVSSNLGSTVKLSCNRSTGNIGSNYVSWYQQHEGRSPTTMIYRDDKRPDGIPDRFSGSIDGSSNSALLTINNVQTEDEADYFCQSYSSDIKYIFGGGTKLTVL | 1.84 nM |
| RNF43-177 (antibody, V domains shown, Rat clone; VH/VL only) VH: QVKLLQSGAALVKPGDSAKMSCKASGYTFTDSIIHWVKQSHGKSLEWIGYINPYSGGIQYNEKFKNKATLTVDKSSSTAYVEFSRLTSEDSAIYYCAREIRGMDAWGQGTSVTVSS VL: DIVLTQSPATLSVTPGESVSLSCRASQGISTSLHWYQQKSTESPRLLIKYASQSVSGIPSRFSGSGSGTDFTLSINRVESEDFSVYYCQQSYNLPRTFGPGTKLELK | 6.47 nM |
| RNF43-61 (antibody, V domains shown, Rat clone; VH/VL only) VH: EVQLVESGGDLVQPGRSLTLSCAASGFIFSDYYMAWVRQAPKKGLEWVASITYEGSSTYYGDSVKGRFTISRDNTKSTLYLLMNSLRSDDSATYYCARHGAHYTYNYAYYFDYWGQGVMVTVSS VL: DIMLTQSPTTLSVIPGENISLSCRASQSVGTNLHWYQQKPSESPRVLINYASQSISGIPSRFSGSGSGTDFTLNINRVEPEDSSVYYCQQSKSWPFTFGSGTKLEIK | 0.43 nM |
| RNF43-74 (antibody, V domains shown, Rat clone; VH/VL only) VH: EVQLVESGGDLVQPGRSLTLSCAASGFTFSDYYMAWVRQAPKKGLEWVASITYEGSSTYYGDSVKGRFTISRDNTKSTLYLLMNSLRSDDTATYYCARHGAHYTYNYAYYFDYWGQGVMVTVSS VL: DIMLTQSPTTLSVIPGENISLSCRASQSVGTNLHWYQQKPSESPRVLINYASQSISGIPSRFSGSGSGTDFTLNINRVEPEDSSVYYCQQSKSWPFTFGSGTKLEIK | 0.35 nM |
| RNF43-80 (antibody, V domains shown, Rat clone; VH/VL only) VH: EVQLVESGGGLVQPGRSLKVSCLASGFNFGDFGMNWIRQAPGKGLEWVSYISSTSGTIYYADTVKGRFTISRDNAKNTLYLQLSSLRSEDTALYYCARPAGRYFDYWGQGVLVTVSS VL: DIVMTQSPSSLAVSAGETVTIDCKSNQSLLYSGNQKNYLAWYQQKPGQSPKLLIYWTSTRQSGVPDRFIGSGSGTEFTLTISSVQAEDLAIYYCQQYYHTPFTFGSGTKLEIK | 0.48 nM |
| RNF43-130 (antibody, V domains shown, Rat clone; VH/VL only) VH: QVQLVQSGAEVVKPGSSVKISCKASGYTFTGNFIHWIKQQPGNGLEWIGWIYPGDGDTTYNQKFSGKATLTADKSSSTAYMQLSNLTSEDSAVYFCAKWRDLSSDWFAYWGQGTLVTVSS VL: DIVMTQSPVSLTVSEGEMVTINCKSSQSLLSSGNQKNYLAWYQQKPGQSPRLLIYFTSTRQSGVPDRFIGSGSGTDFTLTISDVQAEDLADYYCLQHYSYPNTFGAGTKLELK | 0.134 nM |
| RNF43-31 (antibody, V domains shown, Rat clone; VH/VL only) VH: AVQLVESGGGSVQPGRSMRLSCAASGFTFSNYDMTWVRQAPTKGLEWVASITYDGGSTYSRDSVKGRFTISRDNAKSTLYLQMDSLRSEDTATYYCTTDRGRYLPYYFDYWGQGVMVTVSA VL: DVVLTQTPVSLSVTLGDQASISCRSSQSLEYSDGYSYLEWYLQKPGQSPQLLIYEVSSRFSGVPDRFIGSGSGTDFTLKISRVEPEDLGVYYCFQAIHDPTFGAGTKLELK | 0.13 nM |
| RNF43-41 (antibody, V domains shown, Rat clone; VH/VL only) VH: EVHLVESGGGLVQPGRSVKLSCTASGFTFSYYDMAWVRQAPTKGLEWVASLTYDGSSTYYRDSVKGRFTISRDNAKSTLYLQMDSLRSEDTATYYCTTDRGRYLPYHFDYWGQGVMVTVSS VL: DVVLTQTPVSLSVTLGDQASISCRSSQSLEYSDGYTYLEWYLQKPGQSPQLLIYEVSTRFSGVPDRFIGSGSGTDFTLKISRVEPEDLGVYYCFQATHDPTFGAGTKLELK | 0.37 nM |
| RNF43-67 (antibody, V domains shown, Rat clone; VH/VL only) VH: AVQLVESGGGSVQPGRSMRLSCAASGFTFSNYDMTWVRQAPTKGLEWVASITSDGGSTYSRDSVKGRFTISRDNAKSTLYLQMDSLRSEDTATYYCTTDRGRYLPYYFDYWGQGVMVTVSA VL: DVVLTQTPVSLSVTVGDQASISCRSSQSLEYSDGYSYLEWYLQKPGQSPQLLIYEVSSRFSGVPDRFIGSGSGTDFTLKISRVEPEDLGVYYCFQAIHDPTFGAGTKLELK | 0.59 nM |
| RNF43-71 (antibody, V domains shown, Rat clone; VH/VL only) VH: QVKLLQSGAALVKPGDSVKMSCKASGYTFTDHIIHWVKQSHGKSLEWIGYINPYSGSTNYNEKFKSKATLTVDRSNNTAYMEFSRLTSEDSAIYYCARKNYGGYGVMDAWGQGASVTVSS VL: DIQMTQSPSLLSASVGDRVTLSCKASQNIYKNLAWHQQKLGEAPKLLIYYANSLQTGIPSRFSGSGFGTDYTLTISSLQPEDVATYFCQQSSSGWTFGGGTKLELK | 0.03 nM |
| RNF43-196 (antibody, V domains shown, Rat clone; VH/VL only) VH: QVQLQQSGAELVKPGSSVKISCKASGFTFTSNFMHWIKQQPGNGLEWIGWIYPGDGDTDYNQKFNGKATLTADKSSSTAYMELSSLTSEDSAVYFCARAYYGSYWYFDFWGPGTKVTVSS VL: DVQMTQSPHNLAASPGESVSINCKASKSISKYLAWYQQKPGKVKKLLIYGGSTLQSGIPSRFSGSGSGTDFTLTISSLEPEDFGLYYCQQHNEYPPTFGGGTRLELQ | 0.114 nM |
